The values that follow come from PMC9813072 (Osteoporosis International, 2022).

Data set [1] is classed as in vivo, healthy men and postmenopausal women. The following applies: single SC 20 μg; N = 105 per treatment.
For data set [2] the following is noted: cited from earlier work.
Another data set relates to serum calcium. The following applies: teriparatide 20 μg once a day; cited from earlier work.

In the case of “EU-teriparatide: Forsteo®, Eli Lilly, The Netherlands; EU-approved teriparatide reference product”, in data set [1], the “Total adverse events, number of events” value is reported as 5 e and the “Total adverse events, subjects” value is given as 4 (3.81%) n (%).
Consider Teriparatide, for which the Half-life result in data set [2] (after SC injection) is “approximately 1 h”. For the same substance, in data set [2] (after SC injections of 20, 40, and 80 μg), the “Time to peak serum concentration” value is given as “approximately 30 min”. In addition, the Absolute bioavailability in data set [2] (following SC administration) was 95%. Also, the “Median increase of serum calcium at peak” value in the data set with serum calcium is 0.4 mg/dL.
Regarding “Teriparatide biosimilar: potential biosimilar of teriparatide developed by Intas Pharmaceutical Ltd., India; test product”, in data set [1], the “Total adverse events, subjects” value was 8 (7.62%) n (%).
On to “US-teriparatide: Forteo®, Lilly USA; US-approved teriparatide reference product”, for which, in data set [1], the “Total adverse events, number of events” value is 3 e and the “Total adverse events, subjects” value is 3 (2.86%) n (%).
